US20070253950A1 (Pfizer, published 2007)

Biological target: T1, human RAGE-Fc fusion protein (human, UniProt Q15109 23-344)
T1 construct: amino acids 1-344 of human RAGE appended to the Fc domain of human IgG; also called hRAGE-Fc; huRAGE-Fc
Assay: ligand competition ELISA: HMGB1 coated, hRAGE-Fc pre-mixed with antibody, bound hRAGE-Fc detected with anti-huIgG-HRP; blocked ligand HMGB1
Procedure: Wells were washed and blocked as described above and exposed to 100 μl of pre-incubated mixtures of RAGE-Fc or TrkB-Fc (a non-specific Fc control), at 0.1 μg/ml, plus various forms of the indicated antibody preparation (dilutions of immune sera, hybridoma supernatants or purified antibodies) for 1 hour at room temperature.

B1: XT-H2 (antibody, V domains shown)
VH: QVQLQQSGAELAKPGASVKMSCKASGYTFTTYWMHWVKQRPGQGLYWIGYINPSTGYTEYNQKFKDKATLTADKSSSTAYMQLSSLTSEDSAVYYCARWAGYTIDYWGQGTSVTVSS
VL: DVVLTQTPLSLPVNIGDQASISCKSTKSLLNSDGFTYLDWYLQKPGQSPQLLIYLVSDRFSGVPDRFSGSGSGTDFTLTISRVEAEDLGVYYCFQSNSLPLTFGSGTKLEIK
notes: also called 1hRAGEP3/16
- IC50 (read off the curve): ~0.1 µg/mL
